# B1: VHH 3E6: VHH binding gum arabic, potato lectin and leaf surface; SEQ ID NO:7 by order of the list (protein, listed as Lama glama)
# VHH: QVQLQESGGGLVQPGGTLSLSCAASGFNVRWYGMGWFRQAPGKEREGVACISALQETTAYADSVKGRFTLSRDNPKNTLSLQMNNLQPEDTGVYYCATTDCDDSSRMTYTSYLGQGTQVTVSS
# modifications: 3E6
# B2: Microcapsules containing uvitex OB VHH 3E6: polyurea microcapsules containing the fluorescent tracer Uvitex OB, coupled with (monovalent) VHH 3E6 (conjugate)
# VHH: B1 VHH
# modifications: left off: small tags and cut ends
# notes: polyurea microcapsules containing the fluorescent tracer Uvitex OB, coupled with (monovalent) VHH 3E6
# How the values were obtained:
# [1] = tested on: intact living potato pot plants; assay: VHH binding to intact living plants; design: species or system potato (variety Desiree); conditions: in PBS; 1 hour; FIG. 2: 5 μg/ml
# Procedure: Binding of VHH to intact living plants was investigated on potato pot plants (variety Desiree). Compound leaves of intact living plants were submersed in solutions of hexahistidine-tagged VHH in PBS, or PBS alone for control conditions, leaving the compound leaves attached to the plants. VHH were allowed to bind for 1 hour. Next, the compound leaves still attached to the plants were washed five times in PBS in Erlenmeyer flasks. Different leaves and petiole sections were sampled. Bound VHH were detected by incubation with monoclonal mouse anti-histidine antibodies directly conjugated with Alexa-488 fluorescent dye (Abd Serotec) in PBS for 1 hour. Unbound anti-histidine antibodies were removed by washing five times with PBS. Whole leaves, leaf discs, or petiole sections were analyzed for bound VHH with microscopy.
# potato leaf discs = assay: VHH binding at different pH, leaf dip experiment; design: species or system potato (variety Desiree); conditions: whole range tested from pH 2 to pH 11; 5 μg/ml; 1 hour
# Procedure: In order to test applicability of VHH as binders for greenhouse or field applications where binding supposedly may occur at pH-values, deviating strongly from physiological conditions in which antibodies naturally bind their targets, a leaf dip VHH binding experiment was carried out in a series of solutions with different pH. The following solutions were prepared: 50 mM glycine pH 2.0, 50 mM sodium acetate pH 4.0, 50 mm sodium carbonate pH 9.6, and 10 mM sodium hydroxide pH […] 8 mm potato leaf discs (variety Desiree) were cut using a puncher tool. The leaf discs were first equilibrated to the different pH by washing three times with solutions at different pH. Hexahistidine-tagged VHH were diluted to 5 μg/ml in solutions with different pH, added to the corresponding equilibrated leaf discs, and binding of VHH was allowed for 1 hour. After incubation with VHH, leaf discs were washed three times with solutions at the corresponding different pH. After that, all were washed two times with PBS to equilibrate leaf discs to PBS. Bound VHH were detected by incubation with monoclonal mouse anti-histidine antibodies directly conjugated with Alexa-488 fluorescent dye (Abd Serotec) in PBS for 1 hour. Unbound anti-histidine antibodies were removed by washing five times with PBS. Leaf discs were analyzed for bound VHH with microscopy.
# grass leaf discs = assay: Leaf disc binding assay with VHH-coupled microcapsules, grass; design: species or system Lollium perenne; conditions: Uvitex microcapsules
# Procedure: A leaf disc binding assay was used to evaluate the interaction of VHH-coupled microcapsules with potato, grass and azalea leaves. ø 8 mm leaf discs were sampled from the leaves of potato pot plants (variety Desiree), from the leaves of greenhouse-grown Lollium perenne and from the leaves of azalea pot plants. Leaf discs were washed three times with PBS. Microcapsules containing lambda cyhalothrin or Uvitex were diluted to appropriate densities in 1% skimmed milk in PBS with 0.05%-TWEEN®-20. Microcapsules were added to the leaf discs and settling of microcapsules and binding of targeting agents allowed for 1 hour. Unbound microcapsules were removed by washing three to five times with PBS with 0.05%-TWEEN®-20.
# Leaf discs with Uvitex microcapsules were analyzed for bound microcapsules on a macrozoom microscope system (Nikon). Microcapsules were counted using Volocity image analysis software (Perkin Elmer). A DAPI filter was used to visualize Uvitex microcapsules. Controls for Uvitex microcapsules included blank microcapsules to which no VHH were coupled and microcapsules to which unrelated VHH were coupled.
Molecule,binding to intact living plant (leaves attached to potato pot plant submerged in VHH solution) [1],binding to leaf discs at different pH (potato leaf discs),more microcapsules bound to leaf surfaces compared to blank microcapsules (grass leaf discs),more microcapsules bound to leaf surfaces compared to microcapsules coupled with unrelated VHH (grass leaf discs)
B1,"binding leaf surface, stomata, glandular trichomes, and leaf hairs",detectable binding,,
B2,,,three-fold,two-fold
